The values below come from US20160333082A1 (US Dept. of Health and Human Services, published 2016).

B1: epitope 3 derived peptide (peptide)
peptide: QYQKDAPDHQELNLDVSLQLPSR
B2: anti-C3d mouse/human chimeric antibody C8D3 (antibody, V domains shown)
VH: QAYLQQSGAELVRPGASVKMSCKASGYTFTSYYMHWVKQTPRQGLEWIGAIYPGNGDTSYNQKFKGKATLTVDKSSSTAYMQLSSLTSEDSAVYFCAKGFDYWGQGTTVTVSS
VL: DVVMTQTPLSLPVSLGDQASISCRSSQSLVYSNGNTYLHWYLQKPGQSPKLLIYKVSNRFSGVPDRFSGSGSGTDFTLKISRVEAEDLGVYFCSQSTHVPYTFGGGTKLEIKR
notes: also called chimeric C8D3; chimeric C8D3 mAb
B3: murine anti-C3d hybridoma clone C6 (antibody, V domains shown)
VH: QAYLQQSGAELVRPGASVKMSCKASGYTFTSYYMHWVKQTPRQGLEWIGAIYPGNGDTSYNQKFKGKATLTVDKSSSTAYMQLSSLTSEDSAVYFCAKYGSGYWGQGTTVTVSS
VL: B2 VL
notes: Murine IgG1, kappa
B4: anti-C3d Fab of chimeric antibody C8D3 (Fab, V domains shown)
VH: B2 VH
VL: B2 VL

For experiment [1], the target named is B2. The experiment is described as follows: competition: C8D3 binding to C3d antigen (MFI) with increasing amounts of peptide.
The target of experiment [2] is T1, human complement protein C3d (human, UniProt P01024 1002-1303).
T1 construct: domain: C3d; The assay field of each row says which; also called C3d antigen; C3d protein
The experiment is described as follows: flow cytometry (MFI) on CLL cells taken 24 h after ofatumumab infusion (C3d-opsonised). Background: A flow cytometer gives signals particle by particle.

In experiment [3] the target is T1, human complement protein C3d. The experiment is described as follows: avidity; antibody titration on C3d-opsonised CLL patient cells, 'OFA 24 h' sample (FIG. 9); apparent KD (avidity) on C3d-opsonized CLL cells, OFA 24 h sample.
Experiment [4] shares this target. The experiment is described as follows: PEPperCHIP microarray of 15-aa C3d peptides. An excerpt: The epitopes on C3d were mapped using PEPperCHIP technology (PEPperPRINT GmbH, Heidelberg, Germany). In brief, 15 amino acid (aa) long peptides with 14 aa overlaps were synthesized based on the C3d aa sequence and immobilized in duplicate on microarray chips. […] The microarrays were read using the LI-COR Odyssey Imaging System and then analyzed using PepSlide® Analyzer software.

The target is the same in experiment [5]. The experiment is described as follows: surface plasmon resonance (Biacore 3000), C3d immobilised, Fab at 0.5, 2.5, 5, 25 and 50 nM.

In the case of B1, the binding result in experiment [1] is recorded as “binds”.
As for B2, the EC50 (read off the curve) – broadly, the concentration giving half of the maximal effect – in experiment [2] is approximately 40 nM. The Kd in experiment [3] was found to be 6.7 nM.
With B3, the binding result in experiment [4] was “binds”.
In experiment [5], B4 yielded a Kd of 17 nM.
